Measurements from the supplement of paper PMC10724198.
± gives the standard deviation of the averaged measurements.

System: Saccharomyces cerevisiae
Test: protein stability index of tFT-peptide fusion (C-terminal peptide) (PSI (0-1 scale)); higher = more stable (slower turnover)
Conditions: genetic background: wild type; temperature: 30 C
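Further: PSI is a weighted mean of sequencing reads over stability bins, variants kept only with over 10 reads, mCherry proximal and sfGFP distal, peptide attached via GGGS linker.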

Sequence | protein stability index
RLDRARTPPAST | 0.779 ± 0.05
RLEGNRGPWRQD | 0.786 ± 0.1
RLFCLRSVSLVS | 0.572 ± 0.015
RLIHRLLGLFPS | 0.69 ± 0.06
RLILLPLFLSDS | 0.729 ± 0.092
RLITGTKLFNGM | 0.765 ± 0.045
RLKLKSECYSPL | 0.667 ± 0.034
RLLLRNAASSSS | 0.691 ± 0.042
RLLPPSPPPPPS | 0.667 ± 0.035
RLPHPHPVRSLP | 0.7 ± 0.022
RLPSSPPSATWL | 0.6784 ± 0.0019
RLPSSSFSPHRA | 0.688 ± 0.0069
RLRKEKGKKIQY | 0.697 ± 0.073
RLRPLSPPTLCD | 0.665 ± 0.044
RLRRLYSLRTYL | 0.543 ± 0.033
RLTSPPYSFFLH | 0.644 ± 0.019
RLVHSRPPPFAS | 0.794 ± 0.13
RMRRAHCQQSGG | 0.6537 ± 0.0037
RNEDYQKKRKGK | 0.701 ± 0.022
RNIRGDYKGRRL | 0.6455 ± 0.0019
RNKHREEIERQT | 0.672 ± 0.031
RNKKDIKIQIKR | 0.68 ± 0.049
RNKKIKKKKGRN | 0.701 ± 0.069

Sequence | protein stability index
RNKRPDQRERKQ | 0.692 ± 0.17
RNLHVSMGKCSP | 0.722 ± 0.21
RNLRCDIVNVYP | 0.759 ± 0.015
RNRLTTMCRHLE | 0.655 ± 0.062
RNRNDRIKKLKR | 0.667 ± 0.014
RPAAPGSKGDDN | 0.7 ± 0.043
RPAGGPRGGEGV | 0.648 ± 0.058
RPAMSPPPLCPP | 0.625 ± 0.027
RPASVHDLSLQC | 0.681 ± 0.033
RPCDLISGFCGL | 0.695 ± 0.012
RPDSPSPLPPPP | 0.637 ± 0.028
RPELRRETARVR | 0.644 ± 0.038
RPEVRTGPASTH | 0.676 ± 0.032
RPFLLWRVVTPL | 0.611 ± 0.016
RPGLCLTFFSAH | 0.666 ± 0.032
RPGSWINEITKE | 0.69944 ± 0.00024
RPKVSRIKENKY | 0.727 ± 0.02
RPLPLRLDGSGS | 0.719 ± 0.047
RPLPPPPAPPPL | 0.706 ± 0.029
RPLSPPSAPTSF | 0.679 ± 0.0055
RPLTSVTPLPTL | 0.6988 ± 0.0067
RPLVYIKHLALL | 0.44 ± 0.17
RPNTVHLQALYN | 0.6802 ± 0.0046

Sequence | protein stability index
RPNWSRFTSIYA | 0.653 ± 0.016
RPPINRLCPWLL | 0.671 ± 0.032
RPPLIPAALLFL | 0.589 ± 0.048
RPPLLPPLDAPS | 0.713 ± 0.027
RPPLPPPPPLPP | 0.578 ± 0.03
RPPPPRPRSLLS | 0.654 ± 0.097
RPPPRSPPLPRL | 0.806 ± 0.03
RPPPSAIPPPSP | 0.6274 ± 0.0014
RPPTASPLVAPA | 0.655 ± 0.0067
RPRCAPSPPLPP | 0.691 ± 0.047
RPSLEKQETEKT | 0.696 ± 0.056
RPSLSRSSLLSP | 0.701 ± 0.032
RPTSPCPNHRLE | 0.667 ± 0.097
RQCGKGGKEGAA | 0.653 ± 0.051
RQFVTACPLWRH | 0.676 ± 0.046
RQQKTNERRPRT | 0.648 ± 0.04
RQWAISRRWVVR | 0.562 ± 0.021
RQYCTRDHNIIK | 0.732 ± 0.025
RRAGGARGKTSE | 0.645 ± 0.014
RRAGRGGIGKGG | 0.591 ± 0.018
RRDLKNVRLPDR | 0.675 ± 0.055
RRESAGFGLVWG | 0.709 ± 0.017
RRFPYGPFDFSI | 0.6645 ± 0.0049

Sequence | protein stability index
RRGCTKYGSYII | 0.696 ± 0.082
RRGCYLFTPRPG | 0.648 ± 0.015
RRGLRVTETPVR | 0.772 ± 0.011
RRGWRRGGLGNG | 0.683 ± 0.052
RRHGDVGFGVGW | 0.82 ± 0.1
RRHPRLPSLSGL | 0.651 ± 0.044
RRIVAPYSGEAA | 0.774 ± 0.013
RRKEEEGKEVRK | 0.666 ± 0.01
RRMDGHLRELPA | 0.685 ± 0.058
RRNARRARARWR | 0.637 ± 0.065
RRNPTCPSGTQK | 0.7 ± 0.021
RRPFPSSVVFPH | 0.702 ± 0.023
RRPRIANIETDY | 0.678 ± 0.0046
RRRGRGAVGATR | 0.716 ± 0.073
RRRLLCVCDLMM | 0.576 ± 0.038
RRSCSMQISSRN | 0.642 ± 0.045
RRSLSVYPRFRT | 0.714 ± 0.037
RRSRFSGACLLM | 0.773 ± 0.13
RRTRRSTGHATG | 0.665 ± 0.043
RRTSPNKNLKNQ | 0.618 ± 0.097
RRVPTDQYRLLE | 0.696 ± 0.027
RRVYGRELHPSQ | 0.731 ± 0.029
RRWATGGVIGGR | 0.677 ± 0.0074

Sequence | protein stability index
RSALVPPRLPAS | 0.675 ± 0.075
RSCAHATLAYVP | 0.771 ± 0.082
RSDCLIDSRMVD | 0.694 ± 0.094
RSDRDGPPRGDS | 0.719 ± 0.087
RSFPPPPARSLP | 0.711 ± 0.039
RSGCGYCLVRLG | 0.541 ± 0.0007
RSGGSSPRRLFT | 0.7 ± 0.0095
RSHAHTRNGSSA | 0.675 ± 0.022
RSHLLPPPRHQH | 0.7333 ± 0.00099
RSLGGGVGARFV | 0.695 ± 0.037
RSLSPPPASPIP | 0.6755 ± 0.0051
RSLYGLMNPPRG | 0.71 ± 0.011
RSNLGLNLVLAI | 0.591 ± 0.031
RSNNKFAKPIQY | 0.663 ± 0.11
RSPHLPTARSSQ | 0.723 ± 0.018
RSPLPHPPPHSY | 0.612 ± 0.054
RSPPLEPTLDPL | 0.785 ± 0.1
RSPTRHAPPRPV | 0.639 ± 0.095
RSRDDAGASLHL | 0.6666 ± 0.0054
RSRKICYREEKR | 0.644 ± 0.029
RSSDRGDVRATC | 0.689 ± 0.062
RSSGHQIRDKSA | 0.74 ± 0.022
RSSNNQRARPPQ | 0.627 ± 0.028

Sequence | protein stability index
RSSYTLLLPPLR | 0.624 ± 0.0074
RSTGGHGSQAGR | 0.711 ± 0.04
RSTRDKTRLAKD | 0.743 ± 0.11
RSTRLPGFNRRE | 0.662 ± 0.0062
RSTTDVADNSRP | 0.631 ± 0.032
RSWVGVEWVGGM | 0.595 ± 0.094
RTDTKPTGEHEA | 0.694 ± 0.045
RTFKYERNLEVY | 0.596 ± 0.046
RTFTLCSPSPCA | 0.645 ± 0.059
RTPAPENPPTSP | 0.609 ± 0.06
RTPYFGPLAQIA | 0.622 ± 0.023
RTQGVWYHGVRR | 0.745 ± 0.071
RTQRGRMVGEQG | 0.732 ± 0.11
RTQYEVGVGTGG | 0.692 ± 0.021
RTRAPSKHAPER | 0.841 ± 0.16
RTSLRYLKRVER | 0.669 ± 0.076
RTSQLVSRATLD | 0.691 ± 0.019
RTSRKKMLNFKY | 0.66688 ± 0.00034
RTSYIKNQKKKG | 0.699 ± 0.013
RTTKRNDYLSHI | 0.699 ± 0.08
RVALVCGLGCIF | 0.683 ± 0.029
RVEELKFKNLII | 0.6633 ± 0.004
RVFLAVCYGCRV | 0.5659 ± 0.0034

Sequence | protein stability index
RVGLCGSSLGVI | 0.742 ± 0.078
RVIPRTRISLLS | 0.575 ± 0.0075
RVLASVGCYLFW | 0.641 ± 0.015
RVLKIIGFITYA | 0.56 ± 0.034
RVLLLTGAFELV | 0.585 ± 0.028
RVLWGTESFIDL | 0.7383 ± 0.0048
RVMGDAAGCGGV | 0.707 ± 0.062
RVRRAGSGWCGK | 0.729 ± 0.0073
RVSLELEIIPPS | 0.706 ± 0.05
RVSLGHGRAFWP | 0.711 ± 0.083
RVSPGGLCALSV | 0.701 ± 0.051
RVSVGGSVRLFG | 0.711 ± 0.04
RVSWRLSYLCPV | 0.694 ± 0.14
RVTLWDGSRSRI | 0.711 ± 0.017
RVTNLQSRHTLH | 0.692 ± 0.023
RVVEFGFGGCHW | 0.758 ± 0.061
RVVEPKWDWRRG | 0.68 ± 0.032
RVVGGWGEAWRE | 0.744 ± 0.0091
RVVPTKTIAGSA | 0.6502 ± 0.0014
RVVWVWLMSALF | 0.54 ± 0.034
RVWERGRGGDGC | 0.679 ± 0.017
RVWIWHPPTVRD | 0.625 ± 0.016
